# IntAct's records for PubMed 9722563
# B1: Integrin beta-1 (Gallus gallus (Chicken)), P07228 (parent)
# chain: MAETNLTLLTWAGILCCLIWSGSAQQGGSDCIKANAKSCGECIQAGPNCGWCKKTDFLQEGEPTSARCDDLAALKSKGCPEQDIENPRGSKRVLEDREVTNRKIGAAEKLKPEAITQIQPQKLVLQLRVGEPQTFSLKFKRAEDYPIDLYYLMDLSYSMKDDLENVKSLGTALMREMEKITSDFRIGFGSFVEKTVMPYISTTPAKLRNPCTGDQNCTSPFSYKNVLSLTSEGNKFNELVGKQHISGNLDSPEGGFDAIMQVAVCGDQIGWRNVTRLLVFSTDAGFHFAGDGKLGGIVLPNDGKCHLENNMYTMSHYYDYPSIAHLVQKLSENNIQTIFAVTEEFQAVYKELKNLIPKSAVGTLSSNSSNVIQLIIDAYNSLSSEVILENSKLPKEVTISYKSYCKNGVNDTQEDGRKCSNISIGDEVRFEINVTANECPKKGQNETIKIKPLGFTEEVEIHLQFICDCLCQSEGEPNSPACHDGNGTFECGACRCNEGRIGRLCECSTDEVNSEDMDAYCRRENSTEICSNNGECICGQCVCKKRENTNEVYSGKYCECDNFNCDRSNGLICGGNGICKCRVCECFPNFTGSACDCSLDTTPCMAGNGQICNGRGTCECGTCNCTDPKFQGPTCEMCQTCLGVCAEHKDCVQCRAFEKGEKKETCSQECMHFNMTRVESRGKLPQPVHPDPLSHCKEKDVGDCWFYFTYSVNSNGEASVHVVETPECPSGPDIIPIVAGVVAGIVLIGLALLLIWKLLMIIHDRREFAKFEKEKMNAKWDTGENPIYKSAVTTVVNPKYEGK
# Variants of: B1
# Details: with flna_human FLNA
row,Variant,effect of a mutation on the interaction
1,Y788F,decreasing interaction
2,Y788A,disrupting interaction
3,Y788E,disrupting interaction
4,D764V,decreasing interaction
5,N785D,decreasing interaction
6,P786A,decreasing interaction
7,N797D,decreasing interaction
8,N797I,decreasing interaction
